From patent publication US20100150906A1 (AC IMMUNE S A, published 2010)

Experiments:
amyloid beta 1-42 fibers [1] = molecular target: T1, amyloid beta 1-42 fibers (UniProt P05067 672-713); assay: SPR (BIACORE), Aβ1-42 fibers immobilized on CM5 chip, antibody 0.05-1.0 µM
T1 construct: domain: amyloid beta 1-42; Many copies per fiber; also called Aβ1-42 fibers; fibrillar Aβ1-42
Procedure: (§1) BIACORE® technology utilizes changes in the refractive index at the surface layer upon binding of the antibody to the antigen immobilized on the layer. Binding is detected by surface plasmon resonance (SPR) of laser light refracting from the surface. Analysis of the signal kinetics on rate and off rate allows the discrimination between non-specific and specific interaction. The concentration of antibody used was in the range of 0.05 μM to 1.0 μM.

[2] = molecular target: T2, amyloid beta 1-42 monomers (UniProt P05067 672-713); assay: ELISA on coated amyloid (55 µg/ml); mC2 at 0.078 ug/ml
T2 construct: domain: amyloid beta 1-42; also called Aβ1-42 monomers; amyloid monomers
T2 sequence (P05067 672-713 limits assumed): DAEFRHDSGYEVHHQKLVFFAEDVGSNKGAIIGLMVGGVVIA
Procedure: (§2) In order to evaluate the specificity of mC2 to different stages of polymerized amyloid protein, monomeric, polymeric soluble and fibrillic amyloid, an ELISA coated with these different stages of polymeric beta-amyloid was performed (FIG. 9). Monomers were prepared according to a modified method published by (Klein, 2002), soluble polymeric amyloid beta according to (Barghorn et al., 2005), whereas fibers were performed by incubation of amyloid (Bachem, Switzerland) with a final concentration of 1 μg/μl in Tris/HCl pH 7.4 at 37° C. for 5 days followed by a centrifugation step (10,000 rpm for 5 minutes). Then amyloid polymers were coated on an ELISA plates with a final concentration of 55 μg/ml and binding affinity ELISA by using an anti-mouse IgG monoclonal antibody (Jackson) labelled with alkaline phosphate was performed.

[3] = molecular target: T3, soluble polymeric amyloid beta (oligomers) (UniProt P05067 672-713); assay: as above
T3 construct: domain: amyloid beta 1-42; also called amyloid oligomers; Abeta oligomer
T3 sequence (P05067 672-713 limits assumed): as above
Procedure: as §2

amyloid beta 1-42 fibers [4] = molecular target: T1, amyloid beta 1-42 fibers; assay: as above
Procedure: as §2

amyloid beta 1-42 fibers [5] = molecular target: T1, amyloid beta 1-42 fibers; assay: SPR (Biacore X), fibrillar Aβ1-42 on CM5 chip, average of experiments
Procedure: The interactions between AC immune's lead antibody mACI-01-Ab7 C2 (mC2) with amyloid peptide Aβ₁₋₄₂ was studies using surface plasmon resonance. The binding of the mouse antibody mACI-01-Ab7 C2 to either monomers or fibers of Aβ₁₋₄₂ were determined.
All SPR experiments were carried out on a Biacore X instrument (Biacore AB). Reagents for immobilization (EDC, NHS and ethanolamine), sensor chips CM5 and SA as well as running and sample buffer HBS-EP were purchased from Biacore AB. Sodium acetate (10 mM, pH 5.0) was used as coupling buffer to increase coupling yield. Fibrillar Aβ₁₋₄₂ (BAchem) was prepared by adding PBS buffer to Aβ₁₋₄₂ to a final concentration of 3 mg/ml and leaving the vials at 37° C. for 7 days. Fibrillar Aβ₁₋₄₂ was coupled to a CM5 sensor chip containing a surface-bound carboxymethyl dextran matrix. Biotinylated monomeric Aβ₁₋₄₂ (Bachem) was coupled to a Sensor chip SA consisting of carboxymethyl dextran matrix with covalently attached Streptavidin. Typically four or five concentrations of mAb were assayed by serial dilutions using running buffer. Injections were performed starting from the lowest concentration and were passed over both fc 1 and 2 at a flow rate of 30 μL'min for 3 min. Flow cell 2 was underivatised and responses were subtracted from fc 1 to correct for instrument noise and bulk refractive changes. After injection was finished, the surfaces were washed immediately with running buffer for 5 min. To remove remaining bound antibody from the Aβ₁₋₄₂ fibrils, surface regeneration was performed by injecting pulses of 10 mM NaOH. Kinetic analysis was performed using algorithms for numerical integration and global analysis using BIAevaluation 3.0. The curves obtained for injections of analyte at different concentrations were overlaid and the baselines adjusted to zero. For curve fitting, all data were fit simultaneously to a 1:1 homogeneous complex.

[6] = molecular target: T2, amyloid beta 1-42 monomers; assay: SPR (BIACORE), Aβ1-42 monomers immobilized on CM5 chip, antibody 0.05-1.0 µM; monomers immobilized on a CM5 chip
Procedure: as §1

T1 sequence (P05067 672-713 limits assumed): as above

B1: mouse monoclonal antibody ACI-01-Ab7C2 (antibody, V domains shown)
VH: EVQLVESGGGLVQPGGSLKLSCAASGFTFSSYGMSWVRQTPDKRLELVASINSNGGSTYYPDSVKGRFTISRDNAKNTLYLQMSSLKSEDTAMYYCASGDYWGQGSTLTVSS
VL: DVVMTQTPLSLPVSLGDQASISCRSSQSLVYSNGDTYLHWYLQKPGQSPKLLIYKVSNRFSGVPDRFSGSGSGTDFTLKISRVEAEDLGVYFCSQSTHVPWTFGGGTKLEIK
notes: also called mC2; mACI-01-Ab7 C2
Q: What does the source list for B1?
A: Kd (amyloid beta 1-42 fibers [1]): 41 nM; koff (amyloid beta 1-42 fibers [1]): 0.00099 s⁻¹; kon (amyloid beta 1-42 fibers [1]): 24000 M⁻¹ s⁻¹; O.D [2]: 0.333 O.D; O.D [3]: 0.652 O.D; O.D (amyloid beta 1-42 fibers [4]): 0.499 O.D; Kd (amyloid beta 1-42 fibers [5]): 35 nM; koff (amyloid beta 1-42 fibers [5]): 0.0011 s⁻¹; kon (amyloid beta 1-42 fibers [5]): 38000 M⁻¹ s⁻¹; kon [6]: 18000 M⁻¹ s⁻¹
